According to patent publication US20240209104A1 (SHANGHAI ACEMAB, published 2024):

T1: OX40 on OX40 over-expressed cells (UniProt P43489 29-277)
T1 construct: whole, on cells; human implied; also called OX40 expressed on the surface of OX40 expressing cell
T1 sequence (looked up): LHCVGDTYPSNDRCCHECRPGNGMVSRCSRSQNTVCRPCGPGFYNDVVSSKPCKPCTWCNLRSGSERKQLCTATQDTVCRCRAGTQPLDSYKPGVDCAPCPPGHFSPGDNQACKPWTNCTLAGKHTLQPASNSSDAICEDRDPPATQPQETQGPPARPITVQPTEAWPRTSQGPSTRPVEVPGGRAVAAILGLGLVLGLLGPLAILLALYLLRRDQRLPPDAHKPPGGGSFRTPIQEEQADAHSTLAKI

T2: hOX40-EC-His (human, UniProt P43489 29-214)
T2 construct: extracellular domain; bought protein; also called recombinant human OX40 antigen protein; human OX40 extracellular segment antigen; not shown: 6 His label
T2 sequence (looked up): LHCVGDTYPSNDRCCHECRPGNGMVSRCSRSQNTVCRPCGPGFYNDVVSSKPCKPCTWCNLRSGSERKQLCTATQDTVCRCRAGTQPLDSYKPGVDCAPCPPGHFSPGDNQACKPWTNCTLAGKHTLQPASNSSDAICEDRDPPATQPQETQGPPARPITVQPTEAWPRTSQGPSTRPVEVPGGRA


What was measured:
[1] = biological target: T1, OX40 on OX40 over-expressed cells; test: flow cytometry, supernatant on OX40 over-expressed cells
Experimental: After collecting OX40 over-expressed cells by 200G centrifugation, wash them with PBS containing 3% FCS, and then resuspend them in 2.5 ml of PBS containing 3% FCS. […] Finally, the cells were resuspended in […] of PBS containing 3% FCS for detection by flow cytometry.

hOX40-EC-His [2] = biological target: T2, hOX40-EC-His; test: ELISA, supernatant stoste, coated OX40 (CK60)
hOX40-EC-His [3] = biological target: T2, hOX40-EC-His; test: ELISA, supernatant 1:100, coated hOX40-EC-His
hOX40-EC-His [4] = biological target: T2, hOX40-EC-His; test: ELISA, supernatant diluted 100 times, coated OX40 (CK60)
hOX40-EC-His [5] = biological target: T2, hOX40-EC-His; test: ELISA, supernatant diluted 50 times, coated OX40 (CK60)

Binder	Y586 channel PE fluorescence value [1]	450 nm light absorption (hOX40-EC-His [2]) [OD450]	IgG ELISA (1:100) (hOX40-EC-His [3]) [OD650]	450 nm light absorption (hOX40-EC-His [4]) [OD450]	450 nm light absorption (hOX40-EC-His [5]) [OD450]
23D1-8 (antibody, V domains shown, hybridoma antibody, tested as culture supernatant) VH: QVQLVQSGAEVKKPGASVKVSCKASGYTFTGYYIHWVRQAPGQGLEWMGRINPNSGGTDFAQKFQARVTMTRDTAINIVYMELSRLRSDDTAVYYCARVVVASYYFDNWGQGTLVTVSS VL: not shown	166000	2.48	2.4	2.02	–
55H6-6 (antibody, V domains shown, hybridoma antibody, tested as culture supernatant) VH: QVQLVQSGAEVKKPGASVKVSCKASGYTFTSYGISWVRQAPGQGLEWMGWISAYNGHTNYAQKLQGRVTMTTDTSTNTAYMELWSLRSDDTAVYYCTSDYGDYWGQGTLVTVSS VL: DVVVTQSPLSLPVTLGQPASISCRSSQSLVYSDGNTNLYWFQQRPGQSPRRLIYQVSNRDSGVPDRFSGSGSGTDFTLKISRVEAEDVGVYYCMQGTHWPPALTFGGGTEVEIKR	479000	2.43	0.1	1.9	–
30B1-3 (antibody, V domains shown, hybridoma antibody, tested as culture supernatant) VH: not shown VL: EIVLTQSPGTLSLSPGERATFSCRASQSVSGSYLAWYQQKPGQAPRLLIHGASSRATGIPDRFSGSGSGTDFTLTISRLEPEDFAVYYCLQYGSSPLTFGGGTKVEIKR	208000	2.31	2	1.89	–
1F10-12-3 (antibody, V domains shown, hybridoma antibody, tested as culture supernatant) VH: QVQLQESGPGLVKPSGTLSLTCAVSGGSISNSNWWNWVRQPPGRGLEWIGEIYHSGSTNYNPSLKSRVTISVDKSKNQFSLKLTSVTAADTAVYYCARYSTPFFDYWGQGNLVTVSS VL: DIQMTQSPSSLSASVGDRVTITCRASQSISNYLNWYQQKQGKAPKLLIYGASSLQSGVPSRFSGSGSGTDFTLTINSLQPEDFATYCCQQSYNNPLTFGGGTKVEIKR	170000	–	2.3	–	2.17
38D9-12 (antibody, V domains shown, hybridoma antibody, tested as culture supernatant) VH: QVQLQESGPGLVKPSGTLSLTCAVSGDSISSTNWWSWVRQPPGKGLEWIGEINHNGSTYYNPSLKSRVTISVDKSKNQFSLKLRSVTAADTAVYYCAREDYYYMDVWGKGTTVTVSS VL: DIQMTQSPSSLSASVGDRVTITCRTSQGIWNDLGWYQQKPGKAPKRLIYAASSLQSGVPSRFSGSESGTEFTLTISSLQPEDFATYYCLQYNNYPLTFGGGTKVEIKR	243000	2.24	2.4	2.1	–
14D3-7-3 (antibody, V domains shown, hybridoma antibody, tested as culture supernatant) VH: EVQLVESGGGLVKPGGSLRLSCAASGFTFSNAWMSWVRQAPGKGLEWVGRIKRKTDGGTTDYATPVKGRFTISRDASKNTLYLQMNSLKTEDTAVYYCTSAARRGYFDIWGRGTLVTVSS VL: EIVLTQSPGTLSLSPGERATLSCRASQSVSSRYLAWYQQKPGQAPRLLIYGASNRATGMPDRFSGSGSGTDFTLTISRLEPEDFAMYYCQQYGSSPITFGQGTRLEIKR	274000	–	2.2	–	2.01
20G6-7-1 (antibody, V domains shown, hybridoma antibody, tested as culture supernatant) VH: QVQLQESGPGLVKPSGTLSLTCAVSGGSISSSNWWSWVRQPPGKGLEWIGEIYHSGNTNYNPSLKSRVTISVDKSKNQFSLKLSSVTAADTAVYYCARGGTTFDYWGQGTLVTVSS VL: EIVLMQYPGTLSLSSGERATLSCRASQSVSSRYLAWYQQKPGQAPRLLIYGASNRASGMPDRFSGSGSGTEFTLTISSLEPEDFAMYYCQQYGSSPITFGQGTRVEIKR	352000	–	–	–	2.21
23C4-1-5 (antibody, V domains shown, hybridoma antibody, tested as culture supernatant) VH: QVQLQESGPGLVKPSGTLSLTCAVSGGSISSSNWWSWVRQPPGKGLEWIGEIYHSGSTTYNPSLKSRVTISVDKSKSQISLKLTSVTAADTAVYYCARGDVLLWFGGRGTLVTVSS VL: EIVLTQSPGTLSLSPGERASLSCRASQSVSSNYLAWYQQKPGQTPRLLIYGASIRATGIPDRFSGSGSGTDFTLIISRLEPEDFAVYYCQQYSSSPITFGQGTRLEIKR	63900	–	2.4	–	2.63
16E4-10-5 (antibody, V domains shown, hybridoma antibody, tested as culture supernatant) VH: QVQLQESGPGLVKPSGTLSLTCDVSGGSISSSNWWSWVRQPPGKGLEWIGEIYHSGSTNYNPSLKSRVTISVDKSKNQVSLKLNSVTAADTAVYYCARGDILLWFGGQGTLVTVSS VL: EIVLTQSPGTLSLSPGERATLSCRASQSVSSRYLAWYQQKPGQAPRLLIYGASNRATGMPDRFSGSGSGTDFTLTISRLEPEDFAVYYCQQYGSSPITFGQGTRLEIKR	377000	–	–	–	2.53
24B9-10 (antibody, V domains shown, hybridoma antibody, tested as culture supernatant) VH: QVQLQESGPGLVKPSGTLSLTCAVSGGSISSSNWWTWVRQPPGKGLEWIGEIYHSGSTNYNPSLKSRVTISVDKSKNQFSLKLSSVTAADTAVYYCARTGPIVTTEYWGQGTLVTVSS VL: EIVLTQSPGTLSLSPGERATLSCRASQSVSSGYLAWYQQKPGQAPRLLIYGASIRATGIPDRFSGSGSGTDFTLTISRLEPEDFALYYCQQYGSSPLTFGGGTKVEIKR	313000	2.19	0.2	0.574	–
